Test in all cases: photon counting histogram
For experiment [1], the target named is HaloTag-VfAuLOV (light-oxygen-voltage (LOV) domain of V. frigida Aurochrome1) (V. frigida).
Experiment [2] addresses HaloTag-bZip-VfAuLOV (V. frigida).
Experiment [3] addresses HaloTag-HsCRY2 (human CRY2 photolyase homology region) (human).
Experiment [4] deals with HaloTag-AtCRY2 (photolyase homology region of cryptochrome 2 from A. thaliana) (A. thaliana).
For experiment [5], the target named is HaloTag-AtCRY2(W374A) (A. thaliana).

For 5 substances, stoichiometry N, relative brightness and relative brightness (relative to the monomeric standard) results are on record in doi:10.1101/2025.04.18.649599.

The stoichiometry N is a count of units in the complex or per binding partner. “HaloTag-VfAuLOV (light-oxygen-voltage (LOV) domain of V. frigida Aurochrome1) (domain or fragment)” registered a stoichiometry N in experiment [1] of 2.

In experiment [2], “HaloTag-bZip-VfAuLOV (domain or fragment)” registered a stoichiometry N of 2.

“HaloTag-HsCRY2 (human CRY2 photolyase homology region) (domain or fragment)” showed a relative brightness at about 750 nM (relative to the monomeric standard) in experiment [3] of 1.6.

As for “HaloTag-AtCRY2 (photolyase homology region of cryptochrome 2 from A. thaliana) (domain or fragment)”, in experiment [4], the relative brightness (relative to the monomeric standard) is 2 to 4, the relative brightness at 750 nM (relative to the monomeric standard) turned out to be 3 and the stoichiometry N stood at 4.

In experiment [5], “HaloTag-AtCRY2(W374A) (domain or fragment)” showed a relative brightness (relative to the monomeric standard) of 1.5.
